B6: human SCUBE2 (Signal peptide-CUB-EGF domain-containing protein 2) (receptor)
chain: RAAGPQEDVDECAQGLDDCHADALCQNTPTSYKCSCKPGYQGEGRQCEDIDECGNELNGGCVHDCLNIPGNYRCTCFDGFMLAHDGHNCLDVDECLENNGGCQHTCVNVMGSYECCCKEGFFLSDNQHTCIHRSEEGLSCMNKDHGCSHICKEAPRGSVACECRPGFELAKNQRDCILTCNHGNGGCQHSCDDTADGPECSCHPQYKMHTDGRSCLEREDTVLEVTESNTTSVVDGDKRVKRRLLMETCAVNNGGCDRTCKDTSTGVHCSCPVGFTLQLDGKTCKDIDECQTRNGGCDHFCKNIVGSFDCGCKKGFKLLTDEKSCQDVDECSLDRTCDHSCINHPGTFACACNRGYTLYGFTHCGDTNECSINNGGCQQVCVNTVGSYECQCHPGYKLHWNKKDCVEVKGLLPTSVSPRVSLHCGKSGGGDGCFLRCHSGIHLSSGLQGAYSVTCGSSSPLRNKQQKSNDSAFGDVTTIRTSVTFKLNEGKCSLKNAELFPEGLRPALPEKHSSVKESFRYVNLTCSSGKQVPGAPGRPSTPKEMFITVEFELETNQKEVTASCDLSCIVKRTEKRLRKAIRTLRKAVHREQFHLQLSGMNLDVAKKPPRTSERQAESCGVGQGHAENQCVSCRAGTYYDGARERCILCPNGTFQNEEGQMTCEPCPRPGNSGALKTPEAWNMSECGGLCQPGEYSADGFAPCQLCALGTFQPEAGRTSCFPCGGGLATKHQGATSFQDCETRVQCSPGHFYNTTTHRCIRCPVGTYQPEFGKNNCVSCPGNTTTDFDGSTNITQCKNRRCGGELGDFTGYIESPNYPGNYPANTECTWTINPPPKRRILIVVPEIFLPIEDDCGDYLVMRKTSSSNSVTTYETCQTYERPIAFTSRSKKLWIQFKSNEGNSARGFQVPYVTYDEDYQELIEDIVRDGRLYASENHQEILKDKKLIKALFDVLAHPQNYFKYTAQESREMFPRSFIRLLRSKVSRFLRPYK
notes: Signal peptide a.a; 1-37 and mature protein a.a; also GST.SCUBE2-CUB); also called FLAG.SCUBE2-FL; FLAG-tagged SCUBE2

Tests used:
[1] = biological target: B6; assay: domain mapping (FIG. 12A); method not described
SCUBE3 [2] = biological target: T1, SCUBE3 (UniProt Q8IX30 21-993, limits assumed); assay: western blot of recombinant SCUBE proteins expressed in HEK-293T cells (FIG. 13A)
T1 construct: also called SCUBE3 protein
T1 sequence (looked up): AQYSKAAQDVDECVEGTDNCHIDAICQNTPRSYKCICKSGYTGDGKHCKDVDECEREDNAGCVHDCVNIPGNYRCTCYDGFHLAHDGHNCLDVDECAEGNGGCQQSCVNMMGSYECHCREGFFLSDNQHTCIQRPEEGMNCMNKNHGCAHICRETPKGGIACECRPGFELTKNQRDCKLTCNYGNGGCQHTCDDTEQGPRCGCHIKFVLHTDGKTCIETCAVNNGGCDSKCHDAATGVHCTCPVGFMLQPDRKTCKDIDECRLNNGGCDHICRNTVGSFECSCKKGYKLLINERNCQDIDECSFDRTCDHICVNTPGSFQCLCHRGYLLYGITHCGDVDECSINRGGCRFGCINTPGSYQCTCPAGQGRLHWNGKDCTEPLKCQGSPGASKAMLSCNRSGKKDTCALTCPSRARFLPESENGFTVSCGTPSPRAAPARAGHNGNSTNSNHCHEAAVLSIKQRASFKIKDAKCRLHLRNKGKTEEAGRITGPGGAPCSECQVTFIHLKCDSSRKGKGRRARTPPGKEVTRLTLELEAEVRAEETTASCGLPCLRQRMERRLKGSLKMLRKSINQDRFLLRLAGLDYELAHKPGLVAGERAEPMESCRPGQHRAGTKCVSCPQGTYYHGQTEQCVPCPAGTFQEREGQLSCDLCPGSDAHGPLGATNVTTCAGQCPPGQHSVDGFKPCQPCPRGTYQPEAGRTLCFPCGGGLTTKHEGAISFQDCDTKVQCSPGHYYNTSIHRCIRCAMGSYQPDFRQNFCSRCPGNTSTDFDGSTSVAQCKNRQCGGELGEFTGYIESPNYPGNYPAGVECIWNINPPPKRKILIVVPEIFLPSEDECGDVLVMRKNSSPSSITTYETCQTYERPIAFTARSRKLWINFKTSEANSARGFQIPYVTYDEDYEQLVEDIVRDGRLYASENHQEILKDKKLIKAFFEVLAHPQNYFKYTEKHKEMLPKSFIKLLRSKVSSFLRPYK

SCUBE1 [3] = biological target: T2, SCUBE1 (UniProt Q8IWY4 24-988, limits assumed); assay: as above
T2 construct: also called SCUBE1 protein
T2 sequence (looked up): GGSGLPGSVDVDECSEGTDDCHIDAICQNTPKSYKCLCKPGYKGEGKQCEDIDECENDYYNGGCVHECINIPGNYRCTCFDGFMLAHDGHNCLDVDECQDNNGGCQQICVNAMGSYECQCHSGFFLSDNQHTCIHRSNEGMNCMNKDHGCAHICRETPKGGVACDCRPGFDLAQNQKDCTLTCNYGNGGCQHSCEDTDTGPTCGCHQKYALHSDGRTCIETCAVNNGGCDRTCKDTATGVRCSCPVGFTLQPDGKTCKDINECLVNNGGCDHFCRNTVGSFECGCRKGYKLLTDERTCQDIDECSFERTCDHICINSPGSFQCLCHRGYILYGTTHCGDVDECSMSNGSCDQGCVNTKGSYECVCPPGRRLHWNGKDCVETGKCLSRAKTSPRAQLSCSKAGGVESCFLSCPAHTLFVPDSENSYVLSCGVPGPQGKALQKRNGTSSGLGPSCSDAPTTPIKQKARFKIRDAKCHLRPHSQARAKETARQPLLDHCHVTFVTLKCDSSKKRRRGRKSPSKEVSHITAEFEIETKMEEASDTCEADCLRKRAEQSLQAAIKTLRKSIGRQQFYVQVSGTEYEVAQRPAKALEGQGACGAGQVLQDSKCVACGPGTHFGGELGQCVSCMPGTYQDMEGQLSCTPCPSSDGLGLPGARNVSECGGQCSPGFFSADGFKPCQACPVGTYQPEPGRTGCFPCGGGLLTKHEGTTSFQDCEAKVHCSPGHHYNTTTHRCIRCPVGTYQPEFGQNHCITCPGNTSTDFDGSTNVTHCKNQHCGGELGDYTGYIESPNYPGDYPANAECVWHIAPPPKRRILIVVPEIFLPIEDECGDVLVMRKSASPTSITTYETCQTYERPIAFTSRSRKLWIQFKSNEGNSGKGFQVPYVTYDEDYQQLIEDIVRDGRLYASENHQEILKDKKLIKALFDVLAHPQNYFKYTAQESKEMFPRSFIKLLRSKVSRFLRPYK

VEGFR1 = VEGFR1 (UniProt P17948 27-1338, limits assumed); assay: co-immunoprecipitation with anti-SCUBE2 antibody
Sequence of VEGFR1 (P17948 27-1338 limits assumed): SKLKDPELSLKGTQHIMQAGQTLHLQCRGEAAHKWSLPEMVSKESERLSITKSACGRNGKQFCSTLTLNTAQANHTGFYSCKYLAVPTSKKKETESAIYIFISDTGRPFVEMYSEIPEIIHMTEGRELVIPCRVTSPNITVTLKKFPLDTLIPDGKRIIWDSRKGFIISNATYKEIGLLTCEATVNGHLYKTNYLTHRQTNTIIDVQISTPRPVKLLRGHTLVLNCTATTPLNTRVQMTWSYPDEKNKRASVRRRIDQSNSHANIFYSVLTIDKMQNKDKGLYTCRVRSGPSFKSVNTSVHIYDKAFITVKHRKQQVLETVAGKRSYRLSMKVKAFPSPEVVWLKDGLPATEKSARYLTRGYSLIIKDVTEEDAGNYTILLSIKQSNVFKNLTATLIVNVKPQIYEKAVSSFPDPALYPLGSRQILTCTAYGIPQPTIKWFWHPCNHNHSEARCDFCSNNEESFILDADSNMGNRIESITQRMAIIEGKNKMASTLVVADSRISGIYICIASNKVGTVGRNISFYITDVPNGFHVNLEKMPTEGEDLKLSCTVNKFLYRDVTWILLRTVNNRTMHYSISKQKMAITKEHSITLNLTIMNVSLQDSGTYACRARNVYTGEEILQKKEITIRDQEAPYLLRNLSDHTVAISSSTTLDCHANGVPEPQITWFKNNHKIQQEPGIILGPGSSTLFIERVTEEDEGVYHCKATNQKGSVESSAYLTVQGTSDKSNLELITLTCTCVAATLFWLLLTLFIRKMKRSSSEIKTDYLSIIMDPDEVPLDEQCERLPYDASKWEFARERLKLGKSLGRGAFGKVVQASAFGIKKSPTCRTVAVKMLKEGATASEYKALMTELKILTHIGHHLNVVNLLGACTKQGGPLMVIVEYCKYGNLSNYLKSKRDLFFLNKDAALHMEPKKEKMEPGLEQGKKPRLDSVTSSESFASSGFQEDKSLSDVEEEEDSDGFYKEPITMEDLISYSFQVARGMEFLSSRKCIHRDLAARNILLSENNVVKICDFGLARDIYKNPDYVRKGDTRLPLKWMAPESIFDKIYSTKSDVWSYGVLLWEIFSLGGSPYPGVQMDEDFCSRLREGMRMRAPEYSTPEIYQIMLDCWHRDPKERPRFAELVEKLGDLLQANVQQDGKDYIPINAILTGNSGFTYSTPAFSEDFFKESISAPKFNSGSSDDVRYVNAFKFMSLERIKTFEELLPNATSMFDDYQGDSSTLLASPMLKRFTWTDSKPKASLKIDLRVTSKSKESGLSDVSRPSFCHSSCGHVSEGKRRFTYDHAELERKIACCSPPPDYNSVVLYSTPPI

EGFR = EGFR (UniProt P00533 25-1210, limits assumed); assay: co-immunoprecipitation with anti-SCUBE2 antibody
SCUBE3 [4] = biological target: T1, SCUBE3; assay: co-immunoprecipitation
SCUBE1 [5] = biological target: T2, SCUBE1; assay: co-immunoprecipitation

B1: anti-SCUBE2 mAb clone EGF-C3 (antibody, IgG2a, V domains shown)
VH: EVKLVESGGGLVQPGGSRKLSCVASGFTISSFGMHWVRQAPERGLEWVAYISSGSNTIYYADTVKGRFTISRDNPKNTLFLQMTSLWSEDTAMYYCARSGTLDGWFTYWGRGTLVTVST
VL: DIVMTQPPLSLPVSLGDQASISCRSSQSILHSNGNTYLEWYLQKPGQSPKLLIYKLFNRFSGVPDRFNGSGSGTDFTLKISRAEAEDLGVYYCLQGSHVPPTFGAGTKLEIK
- binding result [1]: binds

B2: anti-SCUBE2 mAb clone SP-A1 (antibody, IgG1, V domains shown)
VH: EVQLQQSGPELVKPGASVKVSCKASGYAFTSYNMYWVKQSHGKSLEWIGYIDPYNGDTNNNQKFKGKATLTVDKSSSTAYMHLNSLTSEDSAVYYCARSYRYLAWFAYWGQGTLVTVSA
VL: DIVMTQSPLSLPVSLGDQASISCRSSQSIVHSNGNTYLEWYLQKPGQSPKLLIYTVSNRFSGVPDRFSGSGSGTDFTLRISRVEAEDLGVYYCFQGSHIPYTFGGGTKLELK
notes: Mouse hybridoma mAb, IgG1
- binding result [1]: binds

B3: anti-SCUBE2 mAb clone SP-B1 (antibody, IgG1, V domains shown)
VH: EVQLQQSGPELVKPGASVKVSCKASGYAFTSYNMYWVKQSHGKSLEWIGYIDPYNGDTNNNQKFKGKATLTVDKSSSTAYMHLNSLTSEDSAVYYCARSYRYLAWFAYWGQGTLVTVSA
VL: DIVMTQSPLSLPVSLGDQASISCRSSQSIVHSNGNTYLEWYLQKPGQSPKLLIYTVSNRFSGVPDRFSGSGSGTDFTLRISRVEAEDLGVYYCFQGSHIPYTFGGGTKLELK
notes: also called SP.B1 mAb
- binding result [1]: binds
- binding result (SCUBE3 [2]): no binding
- binding result (SCUBE1 [3]): no binding

B4: anti-SCUBE2 mAb clone SP-B2 (antibody, IgG1, V domains shown)
VH: EVQRVESGGGLVKPGGSLKLSCAASGFTFRNYAMSWVRQTTEKKLEWVATINDVGSYTYFPASVKGRFTVSRDNTKNTLYLQMSSLRSEDTAMYYCVTSSDTVPHHHALDYWGQGSSVTVSS
VL: DIVMTQPPASLAVSLGQRATVFCRASQNVDSRGISFMHWYQQKPGQPPKLLIYAASNLESGIPARFRGSGSGTDFTLNIHPVEEEDVATYYCQQSVEDLTFGGGTKLELK
- binding result [1]: binds

B5: anti-SCUBE2 mAb clone CR-#5 (antibody, IgG2b, V domains shown)
VH: EVQRVESGGDLVKPGGTLKLSCAASGFTFRNYGMSWVRQTPDKRLEWVATISSGGVYIYYPDSVKGRFTISRDNAKNTLFLQMSSLRSEDSAMYYCARDDYDGRGYFDYWGQGTTLTVSS
VL: DIVMSQSPSSLAVSAGEKVTMSCKSSQSLLNSRTRKNYLAWYQQKPGQSPKLLIYWASTRESGVPDRFTGSGSGTDFTLTISSVQAEDLAVYYCKQSYNLPTFGSGTKLDIK
- binding result [1]: binds

Binder: B6
- binding result (VEGFR1): no binding
- binding result (EGFR): no binding

B7: recombinant VEGF165 protein (ligand, UniProt P15692-4 27-191, looked up)
chain: APMAEGGGQNHHEVVKFMDVYQRSYCHPIETLVDIFQEYPDEIEYIFKPSCVPLMRCGGCCNDEGLECVPTEESNITMQIMRIKPHQGQHIGEMSFLQHNKCECRPKKDRARQENPCGPCSERRKHLFVQDPQTCKCSCKNTDSRCKARQLELNERTCRCDKPRR
notes: Bought reagent; also called VEGF-A165
- binding result (SCUBE3 [4]): no binding
- binding result (SCUBE1 [5]): no binding

Reference: patent publication US20190127454A1 (ACADEMIA SINICA, published 2019)
